Target: MbNbF3^c7HopQ (H. pylori)
Assay: BLI

B1: membrane scaffold protein MSP1D1 (other)
chain: STFSKLREQLGPVTQEFWDNLEKETEGLRQEMSKDLEEVKAKVQPYLDDFQKKWQEEMELYRQKVEPLRAELQEGARQKLHELQEKLSPLGEEMRDRARAHVDALRTHLAPYSDELRQRLAARLEALKENGGARLAEYHAKATEHLSTLSEKAKPALEDLRQGLLPVLESFKVSFLSALEEYTKKLNTQ
modifications: biotinylated with EZ-link NHS-Biotin (biotin/antigen ratio 2 - 2.5) for BLI only
  binding result: binds
